Molecular target: T1, interferon response factor 3 (IRF3), endogenous in HeLa cells (human, UniProt Q14653 1-427)
T1 construct: Phosphorylation state after poly(I:C) was not defined for the immunoprecipitated material
T1 sequence (looked up): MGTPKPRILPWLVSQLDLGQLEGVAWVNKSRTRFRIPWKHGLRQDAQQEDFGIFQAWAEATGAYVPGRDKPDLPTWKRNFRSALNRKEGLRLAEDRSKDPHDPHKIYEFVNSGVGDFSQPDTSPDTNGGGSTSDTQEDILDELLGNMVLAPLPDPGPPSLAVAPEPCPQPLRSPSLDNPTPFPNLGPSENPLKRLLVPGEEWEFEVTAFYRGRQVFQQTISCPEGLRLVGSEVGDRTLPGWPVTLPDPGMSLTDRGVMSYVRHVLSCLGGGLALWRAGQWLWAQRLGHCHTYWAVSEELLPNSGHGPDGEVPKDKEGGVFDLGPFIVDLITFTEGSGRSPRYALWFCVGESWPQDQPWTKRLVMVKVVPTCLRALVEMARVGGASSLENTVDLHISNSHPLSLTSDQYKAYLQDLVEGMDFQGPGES
Test: co-immunoprecipitation from HeLa lysates with immobilised anti-IRF3 antibody, western blot, -/+ poly(I:C)
Procedure: Immunoprecipitation and cell fractionation: For immunoprecipitation, 25 μg of antibody was coupled to 50 μg of agarose beads using the Pierce direct immunoprecipitation kit as specified by the manufacturers (Life Technologies). Cells were lysed in NP-40 lysis buffer provided and pre-cleared with a non-specific isotype agarose control at 4° C. for 1 hour, then incubated with ˜1.5 μg agarose-coupled antibody at 4° C. overnight. Resin was washed multiple times then elution performed using non-reducing sample buffer (containing 2% w/v SDS) at 100° C. for 10 mins. Cytosolic and nuclear fractions were prepared from cells using the Pierce NE-PER cell fractionation kit (Life Technologies) as specified by the manufacturers, and total protein quantitated by BCA assay (Life Technologies) before western blot analyses.
To access whether C6orf106 binds IRF3, C6orf106-flag was co-expressed with GFP −/+ poly(I:C) as described above, then performed a direct co-immunoprecipitation with immobilised IRF3 antibodies. As shown in FIG. 10A C6orf106 could be detected in IRF3-immunoprecipitated lysates, and this was increased approximately four-fold in the presence of poly(I:C). […] Cells were lysed and subjected to […] immunoprecipitation with an anti-IRF3 antibody. IP samples and input controls were probed with anti-FLAG antibody for western blotting. […]

- fold increase of C6orf106 co-immunoprecipitated with IRF3 in the presence of poly(I:C) versus without: ~4 fold
B1: Flag-tagged C6orf106 (C6orf106-FLAG, expressed from pCAGGs-C6-FLAG) (other)
chain: MEGMDVDLDPELMQKFSCLGTTDKDVLISEFQRLLGFQLNPAGCAFFLDMTNWNLQAAIGAYYDFESPNISVPSMSFVEDVTIGEGESIPPDTQFVKTWRIQNSGAEAWPPGVCLKYVGGDQFGHVNMVMVRSLEPQEIADVSVQMCSPSRAGMYQGQWRMCTATGLYYGDVIWVILSVEVGGLLGVTQQLSSFETEFNTQPHRKVEGNFNPFASPQKNRQSDENNLKDPGGSEFDSISKNTWAPAPDTWAPAPDQTEQDQNRLSQNSVNLSPSSHANNLSVVTYSKGLHGPYPFGQSGDYKDDDDK
notes: Over-expressed in HeLa or HEK293T cells and tested in cell lysates by co-immunoprecipitation

Reference: patent publication US20180362625A1 (COMMONWEALTH SCIENTIFIC AND INDUSTRIAL RESEARCH ORGANISATION, published 2018)
